Test results from patent US20220227873A1 (COUNCIL OF THE QUEENSLAND INSTITUTE OF MEDICAL RESEARCH, published 2022).
Changes are numbered by the printed parent chain.

B1: P9-11 (antibody, IgG1, V domains shown)
VH: EVQLVESGGGLVQPGGSLRLSCAASGFTFSSYYIHWVRQAPGKGLEWVAYISPSGGYTYYADSVKGRFTISADTSKNTAYLQMNSLRAEDTAVYYCARGAVLYSSAMDYWGQGTLVTVSS
VL: DIQMTQSPSSLSASVGDRVTITCRASQSVSSAVAWYQQKPGKAPKLLIYSASSLYSGVPSRFSGSRSGTDFTLTISSLQPEDFATYYCQQYYPSPSTFGQGTKVEIKR
notes: Tested as bivalent monospecific native human full-length IgG1; also called ABS clone P9-11
B2: P9-37 (antibody, IgG1, V domains shown)
VH: EVQLVESGGGLVQPGGSLRLSCAASGFTFWKYGIHWVRQAPGKGLEWVAYIYPAGGITSYADSVKGRFTISADTSKNTAYLQMNSLRAEDTAVYYCARSDYYSGMGMDYWGQGTLVTVSS
VL: B1 VL
notes: Tested as bivalent monospecific native human full-length IgG1; also called ABS clone P9-37
B3: P9-24 (antibody, IgG1, V domains shown)
VH: EVQLVESGGGLVQPGGSLRLSCAASGFTFSSYFIHWVRQAPGKGLEWVASIYPTSHSTSYADSVKGRFTISADTSKNTAYLQMNSLRAEDTAVYYCARLGYPGVMDYWGQGTLVTVSS
VL: B1 VL with Y91V, Y92D, P93S, S94R, P95L, S96A
notes: Tested as bivalent monospecific native human full-length IgG1; also called ABS clone P9-24
B4: P9-34 (antibody, IgG1, V domains shown)
VH: B3 VH with S31T, S50Y, T54Q, S55G, H56G, S57Y, S59Y, L99Q, G100S, M105F
VL: B1 VL with Y91W, Y92T, P93I, S94A, P95L, S96T
B5: P9-57 (antibody, IgG1, V domains shown)
VH: B3 VH with F33Y, S50T, T54S, S55G, H56G, S57Y, S59Y, L99Y, G100S, M105L
VL: B1 VL with Y91S, Y92S, P93S, S94F, P95L, S96W
notes: Tested as bivalent monospecific native human full-length IgG1; also called ABS clone P9-57
B6: P9-25 (antibody, IgG1, V domains shown)
VH: B3 VH with F33Y, T54Y, S55G, H56S, S57Y, S59Y, P102S, G103S, V104G
VL: B1 VL with Y91W, Y92A, S94D, P95L, S96T
notes: Tested as bivalent monospecific native human full-length IgG1; also called ABS clone P9-25
B7: P9-50 (antibody, IgG1, V domains shown)
VH: EVQLVESGGGLVQPGGSLRLSCAASGFTFSSYVIHWVRQAPGKGLEWVALIYSSGGYTQYADSVKGRFTISADTSKNTAYLQMNSLRAEDTAVYYCARVGTTYPSRYLEALDYWGQGTLVTVSS
VL: B1 VL with Y91F, Y92G, P93S, P95L, S96P
notes: Tested as bivalent monospecific native human full-length IgG1; Heavy chain copied as printed: it ends 'SLSPG' without the last K; also called ABS clone P9-50

These binders were tested against human GAL9 of the human PBMC cultures (human) (assay: cell-based or functional assay).

INF-γ 72 hr, Fold change, Average [fold]	INF-γ 72 hr, Fold change, Donor 19 [fold]	INF-γ 72 hr, Fold change, Donor 25 [fold]	INF-γ 72 hr, Fold change, Donor 27 [fold]	INF-γ 72 hr, Fold change, as % [%]	INF-γ 72 hr, pg/ml, Donor 19 (HCMV-peptide stimulated PBMCs) [pg/mL]	INF-γ 72 hr, pg/ml, Donor 25 (HCMV-peptide stimulated PBMCs) [pg/mL]	INF-γ 72 hr, pg/ml, Donor 27 (HCMV-peptide stimulated PBMCs) [pg/mL]	Binder
0.68	0.99	0.52	0.53	68.2	5890	23000	891	B1
0.55	0.55	–	–	54.6	3230	–	–	B2
0.8	–	0.82	0.78	87.6	–	35700	1260	B3
0.88	–	1.01	0.74	87.6	–	44400	1050	B4
0.83	0.83	–	–	83.4	4940	–	–	B5

Target: human GAL9 of the human PBMC cultures (human)
Assay: cell-based or functional assay
Remark: another data set of the same source

TNF-α 72 hr, Fold change, Average [fold]	TNF-α 72 hr, Fold change, Donor 19 [fold]	TNF-α 72 hr, Fold change, Donor 25 [fold]	TNF-α 72 hr, Fold change, Donor 27 [fold]	TNF-α 72 hr, Fold change, as % [%]	TNF-α 72 hr, pg/ml, Donor 19 (HCMV-peptide stimulated PBMCs) [pg/mL]	TNF-α 72 hr, pg/ml, Donor 25 (HCMV-peptide stimulated PBMCs) [pg/mL]	TNF-α 72 hr, pg/ml, Donor 27 (HCMV-peptide stimulated PBMCs) [pg/mL]	Binder
0.64	0.78	0.76	0.4	64.7	607	982	374	B1
0.55	0.55	–	–	55.2	429	–	–	B2
0.54	–	0.75	0.32	53.5	–	962	299	B3
0.74	–	0.68	0.79	73.7	–	874	596	B4
0.54	0.54	–	–	53.7	417	–	–	B5

Each binder was assayed against Human GAL9 protein (Acro Biosystems, Human Gal9 His-tag Cat #LG9-H5244) (human) (assay: Octet BLI, IgG1 immobilised on biosensor, GAL9 analyte dilution series, global fit (monovalent affinity)).
Sequence of Human GAL9 protein (Acro Biosystems, Human Gal9 His-tag Cat #LG9-H5244) (human) (chain, as listed by the source): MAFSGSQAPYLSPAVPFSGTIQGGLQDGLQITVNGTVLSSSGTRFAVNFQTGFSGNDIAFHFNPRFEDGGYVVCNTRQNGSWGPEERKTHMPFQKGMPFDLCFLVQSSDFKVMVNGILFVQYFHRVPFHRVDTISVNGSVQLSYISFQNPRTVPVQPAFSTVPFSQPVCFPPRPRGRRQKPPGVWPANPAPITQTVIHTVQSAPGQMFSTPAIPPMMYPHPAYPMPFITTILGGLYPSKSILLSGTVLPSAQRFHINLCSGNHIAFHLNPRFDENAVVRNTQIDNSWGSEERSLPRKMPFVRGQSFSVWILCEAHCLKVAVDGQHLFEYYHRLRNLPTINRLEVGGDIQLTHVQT

Kd [nM]	Binder
6.55	B1
4.54	B2
3.48	B6
5.41	B3
1.21	B7
2.56	B5
